Experimental findings from paper PMC3273813 (Nucleic Acids Research, 2011) are described below.

In the assay the target is T1, PfSir2A (Plasmodium falciparum Sir2), GST fusion (Plasmodium falciparum, UniProt Q8IE47 1-273).
T1 sequence (looked up): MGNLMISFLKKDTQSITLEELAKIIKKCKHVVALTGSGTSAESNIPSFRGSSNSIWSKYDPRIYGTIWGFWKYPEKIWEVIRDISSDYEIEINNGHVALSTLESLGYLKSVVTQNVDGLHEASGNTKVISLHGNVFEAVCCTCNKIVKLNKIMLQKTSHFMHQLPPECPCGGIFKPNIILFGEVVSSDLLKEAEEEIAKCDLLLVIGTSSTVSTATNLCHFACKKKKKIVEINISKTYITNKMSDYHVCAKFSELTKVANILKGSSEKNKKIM
The assay can be described thus: pull-down.

B1: PfAlba3 (Plasmodium falciparum Alba 3), His-tag fusion protein (natural protein, UniProt Q8IJX8 1-107, looked up)
chain: MASTEEVSQERSENSIQVSMTKKPTFYARIGKRMFTGNEEKNPFDEVIITGLGNATKIAIGAASIMEKEDIGQIVKVQTAYFSSDRINRRIPKITIVLKKHPDFVAN
For the molecule B1, the binding result is reported as “binds”.
